# Results reported in the supplement of paper PMC9170038.
# Test system: MS2 coat protein
# Assay: apparent KD of MS2 coat protein; designed switch direction (-1 OFF switch, 1 ON switch): -1; higher = weaker reporter binding
# How it was run: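 Designed RNA switches sharing common flanks were transcribed on Illumina chips by stalled E. coli RNA polymerase. They were titrated with SNAP-549-labelled MS2 coat protein, from 0.7 or 1.5 nM doubling to 3 µM, in Tris-HCl pH 7.5 buffer with KCl, MgCl2, BSA, DTT, tRNA and Tween-20. Titrations ran without input, with 200 uM small-molecule ligand, or with an oligonucleotide input. The apparent KD of each design is the median over its clusters, after curve-fitting of normalised cluster fluorescence.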
# [1] = Eterna round: R95, input ligand: FMN 200 uM
# [2] = Eterna round: R95, input ligand: microRNA oligo, concentration not stated
# [3] = Eterna round: R95, input ligand: none
# [4] = input ligand: microRNA oligo, concentration not stated
Sequence,apparent KD of MS2 coat protein [1],apparent KD of MS2 coat protein [2],apparent KD of MS2 coat protein [3],apparent KD of MS2 coat protein (input ligand: FMN 200 uM),apparent KD of MS2 coat protein (input ligand: none),apparent KD of MS2 coat protein [4]
GAUAAGGUAGGAUAUACGAAUAAAUAGGGUAGAAUAAUAACACAUGAGGAUCACCCAUGUAGAAGGACCAAUAG [Mat - Exclusion 2 - Mod of my Tesla design - D26] (puzzle: Exclusion 2),38.9 nM,25.6 nM,26.3 nM,,,
"CGAAGUAGAAACCGAUCCUACAUGAGGAUCACCCAUGUAGCAAGACGUGCACGCGAAGCUCGUCAGACUACCAGAAU [salish99_TOv1_r3_015] (puzzle: Sensor v3, turn-off variant 1)",212 nM,257 nM,430 nM,,,
"UGAUUGAUUAACAGAUUAUACAUGAGGAUCACCCAUGUAGGUCCUACGUGCACUUUAUGCAGCUCGUCUUAUUCCCA [Sensor-V1 #71] (Eterna round: R97, puzzle: Sensor, turn-off variant 1)",,,,34.4 nM,36.5 nM,
AAGAAACAUGAGGAUCACCCAUGUGAGGAUAUGACAAAGAAAAGAAAAGAAAGAAGAGUCAGAAGGCACAAAGG [salish99-ex1_r3_038] (puzzle: Exclusion 1),137 nM,53.1 nM,57.7 nM,,,
AAGAAACAUGAGGAUCACCCAUGUGAGGAUAUGAUAAAGAAAAGAAAAGAAAGAAGACUCAGAAGGCACAAAGG [salish99-ex1_r3_041] (puzzle: Exclusion 1),31 nM,26.7 nM,28.9 nM,,,
"UAUAUAUAGUAAGGAUAUGUAAUUAUUUUAUCAACAGAAGGUACUGACAUGAGGAUCACCCAUGUUUUAGUGUGGGCAUGUAGA [JMF's solution 49] (Eterna round: R96, puzzle: Exclusion NG 1)",,,,,,61.7 nM
"AAAGUGUCAGGAUAUUGUUAGUUUAGUUGUUUGUAUUAGUUCGAGAAGGGACAUGAGGAUCACCCAUGUUGUAA [Ex4 #64] (Eterna round: R97, puzzle: Exclusion 4)",,,,24.5 nM,32.2 nM,
"GUCCGGCAUGUAGGAUAUGGAUCCGAUUAGGAUUUAGAAGGACAUGAGGAUCACCCAUGUGCAUUUAAUUAGUCAUUACCGGAU [EXclNG1-LROPPY05] (Eterna round: R96, puzzle: Exclusion NG 1)",,,,17.4 nM,17.9 nM,13.6 nM
"UCCUCACAUGAGGAUCACCCAUGUGAGGAUAUCAUGCUUCGUAGUAAACUACGAAGUGUGAGAAGGCACAUGGC [Omei Ex1 D15] (Eterna round: R97, puzzle: Exclusion 1)",,,,23.9 nM,19.6 nM,
"GUAUAGUGAGGAUAUAUAUGCAGUAAACCUCAAAAGAUCGAACUUGAGGAUCACCCAAGUAGAAGGCGCGAGAU [JR_Ex2_Sub052] (Eterna round: R97, puzzle: Exclusion 2)",,,,24.5 nM,30.4 nM,
"UUUAUAUAUGAAGGAUAUACUUAACAUGAGGAUCACCCAUGUGGUGUUGUGAGUGAGUGAGUUUAGUAGAAGGUCAAUUCUUUU [JMF's solution 91] (Eterna round: R96, puzzle: Exclusion NG 2)",,,,731 nM,362 nM,335 nM
CAUACUCAAGUGAGGAUAUUGUCUCGGAUACGAAACAAGAAGGCACAUGAGGAUCACCCAUGUAGAGAGUAAAG [EX-4 Malc #30] (puzzle: Brourd's mod of Exclusion 4),136 nM,25.1 nM,25.6 nM,,,
"AACAUGAGGAUCACCCAUGUGGGUCCUCUGUGGCAGCGAGACGAGGAUAUCAAUGGAGGGCCAGGUGAGAAGGUGUACGAUCAU [Eternabot solution 28] (Eterna round: R96, puzzle: Exclusion NG 3)",,,,183 nM,386 nM,192 nM
GAGUAGGUAGGAUAUACGAUAAUAUAGGGUAGAUAUAUAACACAUGAGGAUCACCCAUGUAGAAGGACCAUGAG [Mat - Exclusion 2 - Mod of my Tesla design - D62] (puzzle: Exclusion 2),118 nM,37.1 nM,35.1 nM,,,
GCCUCACAUGAGGAUCACCCAUGUCAGGAUAUAGGAGACGGUAGCUUUGCUGCCUUCGCUAGAAGGGACUGGCU (puzzle: Exclusion 1),,29.7 nM,,,,
